The text below walks through data of the RNAGym collection of RNA variant scans (doi:10.7554/elife.80360).

B1: CPEB3 Ribozyme (parent)
chain: GGGGGCCACAGCAGAAGCGUUCACGUCGCGGCCCCUGUCAGAUUCUGGUGAAUCUGCGAAUUCUGCUGU

In the data set the parent is B1. Description: self-cleavage, relative activity (ratio to wild type); higher = more cleavage; co-transcriptional.
Take C22U A23G: the self-cleavage is 0.307.

For C22U A23U, the self-cleavage was 0.384.

With U21G G68A, the self-cleavage was determined as 0.794.

For C22A G58U, the self-cleavage came out at 0.119.

For C22A G58A, the self-cleavage stood at 0.179.

Regarding C22A U38A, the self-cleavage amounted to 0.225.

Regarding C22A U38G, the self-cleavage came to 0.131.

As for C22A G28A, the self-cleavage came to 0.158.

Consider C22A G28U, for which the self-cleavage came out at 0.159.

In the case of C22A G28C, the self-cleavage worked out at 0.124.

On to U21G C66U, for which the self-cleavage was 0.529.

On to U21G C66G, for which the self-cleavage was determined as 0.219.

Consider U21G C66A, for which the self-cleavage stood at 0.263.

In the case of C22U A51G, the self-cleavage was 0.314.

On to C22U A51C, for which the self-cleavage was 0.291.

As to C22U C29U, the self-cleavage amounted to 0.14.

With C22U C29G, the self-cleavage was 0.152.

For the variant C22G C34G, the self-cleavage was found to be 0.177.

As for C22G C34A, the self-cleavage was found to be 0.194.

Turning to U21G U26A, the self-cleavage amounted to 0.3.

With U21G U26G, the self-cleavage is 0.221.

For the variant C22A G48C, the self-cleavage was 0.162.

For C22A G48U, the self-cleavage was determined as 0.162.

For C22A G48A, the self-cleavage was determined as 0.223.

As for U21G G41C, the self-cleavage was determined as 0.276.

For U21G G41U, the self-cleavage turned out to be 0.373.

For U21G G41A, the self-cleavage came out at 0.388.

As to C22U G56U, the self-cleavage came to 0.169.

As for C22U G56C, the self-cleavage was 0.21.

As to C22U G56A, the self-cleavage turned out to be 0.187.

For C22G G31U, the self-cleavage amounted to 0.178.

For the variant C22G U62G, the self-cleavage was 0.162.

Turning to C22G U62A, the self-cleavage was determined as 0.194.

For the variant C22G U62C, the self-cleavage turned out to be 0.117.

In the case of C22A U69A, the self-cleavage came out at 0.189.

With C22A U69C, the self-cleavage came out at 0.291.

With C22A U69G, the self-cleavage came to 0.301.

C22A C34A: the self-cleavage was determined as 0.206.

Turning to C22U G65C, the self-cleavage is 0.248.

For the variant C22U G65A, the self-cleavage stood at 0.216.

For the variant C22U G65U, the self-cleavage worked out at 0.195.

For C22U C27A, the self-cleavage turned out to be 0.2.

With C22U C27G, the self-cleavage is 0.215.

Consider C22U C27U, for which the self-cleavage stood at 0.164.

On to U21G U46A, for which the self-cleavage was determined as 0.537.

For the variant U21G U46G, the self-cleavage came out at 0.503.

As to C22G U64C, the self-cleavage worked out at 0.205.

In the case of C22G U64A, the self-cleavage amounted to 0.202.

C22A G47A: the self-cleavage was 0.217.

For the variant C22A G47U, the self-cleavage came out at 0.18.

Consider C22A G37C, for which the self-cleavage came out at 0.265.

With C22A G37U, the self-cleavage came out at 0.937.

On to C22A A42G, for which the self-cleavage is 0.207.

As for C22A A42C, the self-cleavage was found to be 0.251.

Regarding C22A C32G, the self-cleavage stood at 0.182.

For the variant C22A C32A, the self-cleavage was 0.224.

Turning to C22A C32U, the self-cleavage came to 0.201.

As to U21G G50U, the self-cleavage turned out to be 0.588.

For the variant C22G U46A, the self-cleavage is 0.205.

C22G U46C: the self-cleavage came out at 0.192.

Take U21G U38A: the self-cleavage turned out to be 0.157.

Take U21G U38G: the self-cleavage was 0.274.

In the case of C22G A23G, the self-cleavage stood at 0.217.

Regarding C22G C39U, the self-cleavage was determined as 0.236.

Take C22G C39A: the self-cleavage came out at 0.0996.

With C22G C39G, the self-cleavage turned out to be 0.0932.

With C22A A40U, the self-cleavage came out at 0.235.

Take C22A A40C: the self-cleavage turned out to be 0.222.

On to C22A A40G, for which the self-cleavage stood at 0.246.

For the variant C22A U49A, the self-cleavage worked out at 0.195.

As to C22A U49G, the self-cleavage worked out at 0.0812.

Turning to C22A U49C, the self-cleavage stood at 0.209.

As to C22G G56U, the self-cleavage worked out at 0.202.

For C22A A52U, the self-cleavage worked out at 0.118.

Consider C22A A52G, for which the self-cleavage was determined as 0.214.

With C22U G68C, the self-cleavage stood at 0.517.

Turning to C22U G68A, the self-cleavage amounted to 0.48.

For C22U G30C, the self-cleavage stood at 0.181.

For C22A U55A, the self-cleavage turned out to be 0.234.

On to C22A U55C, for which the self-cleavage is 0.113.

With U21G G37A, the self-cleavage was 0.193.

As to U21G G37C, the self-cleavage came out at 0.18.

Take U21G G37U: the self-cleavage came out at 0.196.

Turning to C22A U46C, the self-cleavage came to 0.186.

With C22A U46G, the self-cleavage amounted to 0.148.

Take C22A U46A: the self-cleavage is 0.181.

In the case of C22U G31U, the self-cleavage was 0.116.

As for C22U G31C, the self-cleavage is 0.103.

For C22U G31A, the self-cleavage was 0.183.

With C22A A51G, the self-cleavage amounted to 0.169.

As to C22A A51U, the self-cleavage was determined as 0.242.

With C22U C54A, the self-cleavage was 0.19.

Consider C22G A51U, for which the self-cleavage came out at 0.163.

As to C22G A51G, the self-cleavage worked out at 0.131.

For the variant C22G A51C, the self-cleavage worked out at 0.151.

For C22U C66A, the self-cleavage is 0.19.

As to C22U C66G, the self-cleavage is 0.132.

Consider C22G C57G, for which the self-cleavage is 0.205.

On to C22G U43C, for which the self-cleavage is 0.174.

As to C22G U43G, the self-cleavage worked out at 0.133.

In the case of C22G U43A, the self-cleavage came to 0.114.

As for C22A C45G, the self-cleavage was 0.194.

On to C22G G41C, for which the self-cleavage was 0.105.

With C22G G41A, the self-cleavage amounted to 0.147.

C22G G41U: the self-cleavage was 0.178.

For U21G G58C, the self-cleavage was 0.519.

U21G G58U: the self-cleavage was 0.657.

For the variant U21G G56U, the self-cleavage was 0.611.

As to C22U C39G, the self-cleavage amounted to 0.207.

Regarding C22U C39A, the self-cleavage is 0.148.

With C22U G47C, the self-cleavage amounted to 0.389.

C22U G47U: the self-cleavage came to 0.37.

As to C22U G47A, the self-cleavage worked out at 0.279.

On to C22G C63U, for which the self-cleavage came out at 0.123.

C22G C63A: the self-cleavage turned out to be 0.141.

For the variant C22G C63G, the self-cleavage turned out to be 0.209.

In the case of C22A U26G, the self-cleavage was found to be 0.305.

As for C22A U26C, the self-cleavage was determined as 0.242.

As to U21G C57U, the self-cleavage came out at 0.253.

In the case of C22U G41A, the self-cleavage was 0.185.

As to C22U G41C, the self-cleavage is 0.117.

For C22U G41U, the self-cleavage came out at 0.164.

On to C22A A60C, for which the self-cleavage stood at 0.129.

For the variant C22G U36C, the self-cleavage came to 0.236.

C22G U36G: the self-cleavage was 0.143.

Turning to C22G U36A, the self-cleavage was determined as 0.152.

As to C22G A59G, the self-cleavage was found to be 0.204.

Consider C22G A59C, for which the self-cleavage was 0.151.

Take C22G A59U: the self-cleavage worked out at 0.246.

With C22G G47A, the self-cleavage worked out at 0.149.

Regarding C22G G47C, the self-cleavage turned out to be 0.122.

Take C22G G47U: the self-cleavage was determined as 0.133.

Consider C22G G28C, for which the self-cleavage worked out at 0.18.

Consider C22G G28U, for which the self-cleavage amounted to 0.182.

Consider C22G U53G, for which the self-cleavage is 0.129.

For C22G U53C, the self-cleavage turned out to be 0.184.

Take C22A U53G: the self-cleavage amounted to 0.151.

As to C22A U53A, the self-cleavage is 0.208.

Regarding C22A U36A, the self-cleavage was 0.137.

On to C22A U36G, for which the self-cleavage is 0.161.

C22G C45G: the self-cleavage is 0.229.

For the variant C22G C45A, the self-cleavage turned out to be 0.223.

On to C22U G28A, for which the self-cleavage is 0.117.

In the case of C22U G28U, the self-cleavage came to 0.148.

Consider U21G G28U, for which the self-cleavage turned out to be 0.0808.

Consider C22A G25A, for which the self-cleavage was found to be 0.162.

Regarding C22A G25U, the self-cleavage is 0.115.

Turning to C22U A52C, the self-cleavage was determined as 0.233.

In the case of C22U A52G, the self-cleavage came out at 0.379.

As to C22A U43G, the self-cleavage is 0.181.

As for C22A U43A, the self-cleavage turned out to be 0.143.

For C22G U38G, the self-cleavage amounted to 0.177.

As to C22G U38C, the self-cleavage is 0.232.

C22G U38A: the self-cleavage was 0.165.

Regarding C22A, the self-cleavage was 0.201.

As for C22G, the self-cleavage came to 0.181.

Turning to C22U, the self-cleavage stood at 0.337.

In the case of U21G U36A, the self-cleavage came out at 0.17.

Regarding C22G G68U, the self-cleavage was 0.197.

C22U C32A: the self-cleavage turned out to be 0.17.

C22U C32U: the self-cleavage came out at 0.33.

Regarding C22G C29U, the self-cleavage came to 0.07.

As for C22G C29G, the self-cleavage was 0.225.

Take U21G G48A: the self-cleavage is 0.674.

Consider U21G G48C, for which the self-cleavage stood at 0.648.

On to U21G G48U, for which the self-cleavage worked out at 0.594.

C22G U69C: the self-cleavage turned out to be 0.374.
